Data from patent publication US20250235548A1 (Zymeworks, published 2025).

T1: human sodium-dependent phosphate transporter 2B (NaPi2b) (human, UniProt O95436 1-690)
T1 sequence: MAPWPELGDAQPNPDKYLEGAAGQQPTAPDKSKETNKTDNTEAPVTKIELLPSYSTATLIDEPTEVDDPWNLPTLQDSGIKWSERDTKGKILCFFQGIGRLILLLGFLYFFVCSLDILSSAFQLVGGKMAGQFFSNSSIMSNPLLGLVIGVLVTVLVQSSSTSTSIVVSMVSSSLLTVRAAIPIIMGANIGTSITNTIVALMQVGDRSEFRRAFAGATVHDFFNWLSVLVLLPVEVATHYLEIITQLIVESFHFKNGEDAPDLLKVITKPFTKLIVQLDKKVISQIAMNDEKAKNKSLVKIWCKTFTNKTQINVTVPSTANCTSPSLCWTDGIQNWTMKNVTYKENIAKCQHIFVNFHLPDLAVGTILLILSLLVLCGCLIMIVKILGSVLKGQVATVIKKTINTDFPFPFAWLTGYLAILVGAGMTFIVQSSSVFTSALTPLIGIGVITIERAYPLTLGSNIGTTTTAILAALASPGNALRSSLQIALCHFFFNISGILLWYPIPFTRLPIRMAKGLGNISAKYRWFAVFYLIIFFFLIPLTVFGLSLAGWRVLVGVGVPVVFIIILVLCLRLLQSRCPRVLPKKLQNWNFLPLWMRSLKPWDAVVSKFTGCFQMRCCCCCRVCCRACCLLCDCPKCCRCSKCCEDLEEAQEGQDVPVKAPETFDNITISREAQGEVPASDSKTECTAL

T2: human sodium-dependent phosphate transporter 2B (NaPi2b) (human, UniProt O95436 1-690)
T2 sequence: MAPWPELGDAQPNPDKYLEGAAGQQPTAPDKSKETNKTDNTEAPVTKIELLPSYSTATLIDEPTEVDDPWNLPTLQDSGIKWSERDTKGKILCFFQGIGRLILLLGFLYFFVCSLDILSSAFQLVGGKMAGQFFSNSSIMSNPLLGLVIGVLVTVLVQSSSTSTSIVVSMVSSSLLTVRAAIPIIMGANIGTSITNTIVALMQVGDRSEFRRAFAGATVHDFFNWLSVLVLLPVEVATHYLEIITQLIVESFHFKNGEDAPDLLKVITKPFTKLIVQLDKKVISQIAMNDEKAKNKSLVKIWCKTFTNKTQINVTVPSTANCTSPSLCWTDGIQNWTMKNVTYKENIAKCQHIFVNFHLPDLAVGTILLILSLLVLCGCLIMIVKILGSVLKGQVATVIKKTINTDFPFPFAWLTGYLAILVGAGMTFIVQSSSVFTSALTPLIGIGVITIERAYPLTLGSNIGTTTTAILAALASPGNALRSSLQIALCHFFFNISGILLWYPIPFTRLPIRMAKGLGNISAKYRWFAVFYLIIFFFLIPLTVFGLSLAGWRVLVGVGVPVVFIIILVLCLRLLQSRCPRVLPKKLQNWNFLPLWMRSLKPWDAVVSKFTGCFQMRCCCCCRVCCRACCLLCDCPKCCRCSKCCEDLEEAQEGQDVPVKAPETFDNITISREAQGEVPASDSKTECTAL


Experiments:
Assay in all cases: cell-based or functional assay
[1] = biological target: T1, human sodium-dependent phosphate …
[2] = biological target: T1, human sodium-dependent phosphate …; remark: listed apart in the source
[3] = biological target: T2, human sodium-dependent phosphate …; remark: listed apart in the source

Binder	EC50 (nM), in vitro cytotoxicity, H441 Spheroids [1]	EC50 (nM), in vitro cytotoxicity, H1781 Spheroids [1]	Internalized Fluorescence Fold-Over Untreated, H441, 4 hours, 2.5 nM [2]	Internalized Fluorescence Fold-Over Untreated, H441, 24 hours, 2.5 nM [2]	Internalized Fluorescence Fold-Over Untreated, HCC-78, 4 hours, 2.5 nM [2]	Internalized Fluorescence Fold-Over Untreated, HCC-78, 24 hours, 2.5 nM [2]	Internalized Fluorescence Fold-Over Untreated, IGROV-1, 4 hours, 2.5 nM [2]	Internalized Fluorescence Fold-Over Untreated, IGROV-1, 24 hours, 2.5 nM [2]	EC50 of cytotoxicity, 2D monolayer, HCC-78 cells, 4 days, CellTiter-Glo [3]	EC50 of cytotoxicity, 2D monolayer, IGROV-1 cells, 4 days, CellTiter-Glo [3]
v18993-MCvc-PABC-MMAE (lifastuzumab vedotin) (antibody, human IgG1, kappa, drug-linker MCvc-PABC-MMAE; DAR 4.1 for the whole antibody; sites not stated) heavy 1: GEVQLVESGGGLVQPGGSLRLSCAASGFSFSDFAMSWVRQAPGKGLEWVATIGRVAFHTYYPDSMKGRFTISRDNSKNTLYLQMNSLRAEDTAVYYCARHRGFDVGHFDFWGQGTLVTVSSASTKGPSVFPLAPSSKSTSGGTAALGCLVKDYFPEPVTVSWNSGALTSGVHTFPAVLQSSGLYSLSSVVTVPSSSLGTQTYICNVNHKPSNTKVDKKVEPKSCDKTHTCPPCPAPELLGGPSVFLFPPKPKDTLMISRTPEVTCVVVDVSHEDPEVKFNWYVDGVEVHNAKTKPREEQYNSTYRVVSVLTVLHQDWLNGKEYKCKVSNKALPAPIEKTISKAKGQPREPQVYVYPPSRDELTKNQVSLTCLVKGFYPSDIAVEWESNGQPENNYKTTPPVLDSDGSFALVSKLTVDKSRWQQGNVFSCSVMHEALHNHYTQKSLSLSPG heavy 2: not shown light: GDIQMTQSPSSLSASVGDRVTITCRSSETLVHSSGNTYLEWYQQKPGKAPKLLIYRVSNRFSGVPSRFSGSGSGTDFTLTISSLQPEDFATYYCFQGSFNPLTFGQGTKVEIKRTVAAPSVFIFPPSDEQLKSGTASVVCLLNNFYPREAKVQWKVDNALQSGNSQESVTEQDSKDSTYSLSSTLTLSKADYEKHKVYACEVTHQGLSSPVTKSFNRGEC	11.4 nM	7.94 nM	–	–	–	–	–	–	–	–
v38591 (humanized anti-NaPi2b antibody, H1L2, wild-type Fc) (antibody, human IgG1, kappa) heavy: not shown light: DVQMTQSPSSLSASVGDRVTITCRASQDVYSYLNWYQQKPGKAVKLLIYYTSRLQSGVPSRFSGSGSGTDYTLTISSLQPEDFATYYCQQYNIFPWTFGQGTKLEIKRTVAAPSVFIFPPSDEQLKSGTASVVCLLNNFYPREAKVQWKVDNALQSGNSQESVTEQDSKDSTYSLSSTLTLSKADYEKHKVYACEVTHQGLSSPVTKSFNRGEC	> 200 nM	> 200 nM	1.2 fold	1.9 fold	5.7 fold	35 fold	7.2 fold	26 fold	–	–
v29456-MT-GGFG-AM-Compound 129 DAR 8 (antibody, human IgG1, kappa, MT-GGFG-AM-Compound 129 drug-linker on reduced cysteines (maleimide); DAR 8 for the whole antibody) heavy: not shown light: DVQMTQSPSSLSASVGDRVTITCRASQDVYSYLNWYQQKPGKAVKLLIYYTSRLQSGVPSRFSGSGSGTDYTLTISSLQPEDFATYYCQQYNIFPWTFGQGTKLEIKRTVAAPSVFIFPPSDEQLKSGTASVVCLLNNFYPREAKVQWKVDNALQSGNSQESVTEQDSKDSTYSLSSTLTLSKADYEKHKVYACEVTHQGLSSPVTKSFNRGEC	–	–	–	–	–	–	–	–	0.42 nM	1.11 nM
v29456-MT-GGFG-AM-Compound 136 DAR 8 (antibody, human IgG1, kappa, MT-GGFG-AM-Compound 136 drug-linker on reduced cysteines (maleimide); DAR 8 for the whole antibody) heavy: not shown light: DVQMTQSPSSLSASVGDRVTITCRASQDVYSYLNWYQQKPGKAVKLLIYYTSRLQSGVPSRFSGSGSGTDYTLTISSLQPEDFATYYCQQYNIFPWTFGQGTKLEIKRTVAAPSVFIFPPSDEQLKSGTASVVCLLNNFYPREAKVQWKVDNALQSGNSQESVTEQDSKDSTYSLSSTLTLSKADYEKHKVYACEVTHQGLSSPVTKSFNRGEC	–	–	–	–	–	–	–	–	0.43 nM	4.48 nM
v29456-MT-GGFG-Compound 148 DAR 8 (antibody, human IgG1, kappa, MT-GGFG-Compound 148 drug-linker on reduced cysteines (maleimide); DAR 8 for the whole antibody) heavy: not shown light: DVQMTQSPSSLSASVGDRVTITCRASQDVYSYLNWYQQKPGKAVKLLIYYTSRLQSGVPSRFSGSGSGTDYTLTISSLQPEDFATYYCQQYNIFPWTFGQGTKLEIKRTVAAPSVFIFPPSDEQLKSGTASVVCLLNNFYPREAKVQWKVDNALQSGNSQESVTEQDSKDSTYSLSSTLTLSKADYEKHKVYACEVTHQGLSSPVTKSFNRGEC	–	–	–	–	–	–	–	–	1.98 nM	–
v38591-MC-GGFG-AM-Compound 139 DAR 4 (antibody, human IgG1, kappa, drug-linker MC-GGFG-AM-Compound 139 conjugated by maleimide after TCEP reduction; DAR 4 for the whole antibody; sites not stated) heavy: not shown light: DVQMTQSPSSLSASVGDRVTITCRASQDVYSYLNWYQQKPGKAVKLLIYYTSRLQSGVPSRFSGSGSGTDYTLTISSLQPEDFATYYCQQYNIFPWTFGQGTKLEIKRTVAAPSVFIFPPSDEQLKSGTASVVCLLNNFYPREAKVQWKVDNALQSGNSQESVTEQDSKDSTYSLSSTLTLSKADYEKHKVYACEVTHQGLSSPVTKSFNRGEC	9.85 nM	0.95 nM	1.2 fold	2 fold	5.6 fold	35.9 fold	7.1 fold	26.6 fold	–	–
v40502 (LALADS) anti-NaPi2b antibody (antibody, human IgG1, kappa, L234A L235A) heavy: not shown light: DVQMTQSPSSLSASVGDRVTITCRASQDVYSYLNWYQQKPGKAVKLLIYYTSRLQSGVPSRFSGSGSGTDYTLTISSLQPEDFATYYCQQYNIFPWTFGQGTKLEIKRTVAAPSVFIFPPSDEQLKSGTASVVCLLNNFYPREAKVQWKVDNALQSGNSQESVTEQDSKDSTYSLSSTLTLSKADYEKHKVYACEVTHQGLSSPVTKSFNRGEC	> 200 nM	> 200 nM	1.2 fold	1.9 fold	5.5 fold	35.5 fold	7 fold	25.3 fold	–	–
v40502-MC-GGFG-AM-Compound 139 DAR 4 (antibody, human IgG1, kappa, L234A L235A, drug-linker MC-GGFG-AM-Compound 139 conjugated by maleimide after TCEP reduction; DAR 4 for the whole antibody (printed 3.3 in Table 45.1); sites not stated) heavy: not shown light: DVQMTQSPSSLSASVGDRVTITCRASQDVYSYLNWYQQKPGKAVKLLIYYTSRLQSGVPSRFSGSGSGTDYTLTISSLQPEDFATYYCQQYNIFPWTFGQGTKLEIKRTVAAPSVFIFPPSDEQLKSGTASVVCLLNNFYPREAKVQWKVDNALQSGNSQESVTEQDSKDSTYSLSSTLTLSKADYEKHKVYACEVTHQGLSSPVTKSFNRGEC	7.57 nM	1.15 nM	1.2 fold	1.9 fold	5.3 fold	36.5 fold	6.8 fold	25.4 fold	–	–
v21995 (palivizumab, anti-RSV antibody) (antibody, human IgG1, kappa, V domains shown) VH: QVTLRESGPALVKPTQTLTLTCTFSGFSLSTSGMSVGWIRQPPGKALEWLADIWWDDKKDYNPSLKSRLTISKDTSKNQVVLKVTNMDPADTATYYCARSMITNWYFDVWGAGTTVTVSS VL: DIQMTQSPSTLSASVGDRVTITCKSQLSVGYMHWYQQKPGKAPKLLIYDTSKLASGVPSRFSGSGSGTEFTLTISSLQPDDFATYYCFQGSGYPFTFGGGTKLEIKR	–	–	1 fold	1.1 fold	1 fold	1.1 fold	0.9 fold	1 fold	–	–
